Measured values published in the supplement of paper PMC10567573.
± gives the standard deviation.

Test: protein stability index of a GFP-peptide fusion (GPS, HEK-293T) (PSI 1-6); higher = more stable
[1] = treatment: DMSO, c terminus: a fixed tail appended
[2] = treatment: MLN4924 1 uM, 8 h, c terminus: a fixed tail appended
[3] = treatment: DMSO, c terminus: native
[4] = treatment: MLN4924 1 uM, 8 h, c terminus: native
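Further: 24-mer peptide tiles fused after GFP, lentivirally expressed, FACS-sorted into six equal bins by GFP/DsRed ratio, decoded by Illumina sequencing, PSI is the read-weighted mean bin number.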

Row | Sequence | protein stability index [1] | protein stability index [2] | protein stability index [3] | protein stability index [4]
1 | GLCKQDGQLRVFGAGLLSSISELK [TPH1] | 2.05 ± 0.28 | 2.39 ± 0.4 |  | 
2 | MVEDDSRKEMTAACTPRRRIINLT [MLH1] | 3.95 ± 0.059 | 3.93 ± 0.29 |  | 
3 | VSTGSTDNSPTSNSLEGGTDATAF [ADAMTSL2] | 4.97 ± 0.28 | 5.31 ± 0.28 |  | 
4 | ETVVSYLPLSHIAAQMMDIWVPIK [ACSBG2] | 2.14 ± 0.36 | 2.04 ± 0.14 |  | 
5 | RSVSLSMRKSGAMKKGGIFSAEFL [BNIP3L] | 2.8 ± 0.3 | 2.95 ± 0.34 |  | 
6 | RAPQLHLEYRFYEQLGSGDGIPQV [CSNK1G3] | 3.36 ± 0.21 | 3.34 ± 0.1 |  | 
7 | TEHMKTHTGLKPYECGVCAKKFMW [ZBTB22] | 2.65 ± 0.26 | 2.77 ± 0.34 |  | 
8 | MSRMQSKEYPVVPRSTVRQKVASN [TBX5] | 4.25 ± 0.24 | 4.15 ± 0.087 |  | 
9 | QRVKLKLWDTSGQGRFCTIFRSYS [RAB40A] | 2.3 ± 0.29 | 2.14 ± 0.33 |  | 
10 | TIEDEDVKARKQEIIKVTEQLIEA [CAMK2D] | 5.25 ± 0.075 | 5.26 ± 0.11 |  | 
11 | NSKEDAFSGTDWMLEKMDLKEFDL [ATF4] | 4.6 ± 0.26 | 4.55 ± 0.2 |  | 
12 | HIDAIILALPEDLQGILLKTGMT [DENND6A] |  |  | 2.31 ± 0.59 | 2.59 ± 0.67
13 | GNGRPGRPSQYRPDGLRSGDGVPP [LCOR] | 4.59 ± 0.31 | 4.79 ± 0.2 |  | 
14 | YLWMCSTLALLLNFLACLASFCVE [SCAMP3] | 3.53 ± 0.36 | 3.02 ± 0.12 |  | 
15 | QRAEMLPKTSGTRATSLGRPEEEE [CPOX] | 5.47 ± 0.37 | 5.49 ± 0.28 |  | 
16 | KDHECSECGKTFIYNSHLVVHQRV [ZNF232] | 2.56 ± 0.32 | 2.88 ± 0.41 |  | 
17 | FPEALDELPLPPFLQPLDLTGKG [ANKRD9] |  |  | 3.43 ± 0.22 | 3.52 ± 0.12
18 | NTQTPVQPPPPPPPPPMQPTVPSA [CCDC6] | 5.05 ± 0.48 | 5 ± 0.1 |  | 
19 | YSEYPECCVDVKPISQEKIESERA [DUSP5] | 4.57 ± 0.39 | 4.69 ± 0.66 |  | 
20 | DLIDVREVMERDAKDYADSIHAIF [RAB22A] | 3.16 ± 0.042 | 3.23 ± 0.38 |  | 
21 | ELPKPEVISQLEQGTELWVAERGT [ZNF8] | 4.76 ± 0.17 | 4.82 ± 0.66 |  | 
22 | VKDTDDVPMILVGNKCDLEDERVV [RAP1B] | 4.65 ± 0.45 | 5.02 ± 0.16 |  | 

Row | Sequence | protein stability index [1] | protein stability index [2] | protein stability index [3] | protein stability index [4]
23 | DCSEEYLERQLQAEFIESGQYRAN [TAF7L] | 4.09 ± 0.35 | 4.3 ± 0.12 |  | 
24 | VKPENFLIGRPGNKTQQVIHIIDF [CSNK1G3] | 2.4 ± 0.72 | 2.5 ± 0.34 |  | 
25 | ICAAAGRMGATMAAINSIYSNTDA [GLT8D2] | 2.26 ± 0.43 | 2.2 ± 0.34 |  | 
26 | LRHSNPRADPLVCATGLLGSAPFL [SPNS1] | 2.28 ± 0.31 | 2.75 ± 0.39 |  | 
27 | RNYLNYGEEGAPGKWQQQGDLQDT [CHGB] | 4.86 ± 0.14 | 4.94 ± 0.39 |  | 
28 | LTVEGFQSWMWRGLTFLLPFLFFG [TMEM120A] | 2.98 ± 0.45 | 2.74 ± 0.035 |  | 
29 | EDIDTSMYDNELWAPASEGLKPGP [SERTAD1] | 4.84 ± 0.19 | 4.76 ± 0.17 |  | 
30 | GSAPPRATPGGGTGEAARPHKGLN [PCDHGC5] | 5.19 ± 0.34 | 5.26 ± 0.32 |  | 
31 | DSPENGADSFESSDSLLQSWNSQS [ETS2] | 5.11 ± 0.16 | 5.14 ± 0.15 |  | 
32 | KPKMNYEKLSRGLRYYYDKNIIHK [ETS2] | 2.48 ± 0.19 | 2.52 ± 0.38 |  | 
33 | HRAHHKFSETHADPHNSRRGFFFS [SCD] | 3.08 ± 0.18 | 3.05 ± 0.3 |  | 
34 | FPHSGKDCLLCFPETLPESSLFSV [C8orf76] | 2.21 ± 0.52 | 2.36 ± 0.32 |  | 
35 | AQDLMDGLPPGDSNQLAWFDTDL [CTNNB1] |  |  | 5.29 ± 0.094 | 5.09 ± 0.081
36 | QSSPSFAEKCLDFLVDMFNDEIEE [INTS4] | 2.87 ± 0.1 | 3.18 ± 0.2 |  | 
37 | DGVEVDDSYCDALTRPEPVHEFCA [ADAMTSL2] | 4.57 ± 0.23 | 4.86 ± 0.24 |  | 
38 | VFSFGKHYWELDVDNSCDWALGVC [TRIM43] | 2.54 ± 0.085 | 2.54 ± 0.39 |  | 
39 | EFVNGWYILLVTSDVLTISGTIMK [MCOLN1] | 3.06 ± 0.26 | 3.08 ± 0.33 |  | 
40 | FLLVLAVVAGDTVSTGSTDNSPTS [ADAMTSL2] | 2.5 ± 0.45 | 2.28 ± 0.43 |  | 
41 | EVSNPSKPGRKTNQLQYMQNVVVK [BRD3] | 3.66 ± 0.11 | 3.79 ± 0.28 |  | 
42 | LQLGDGGGCTVGVAGEGVRRKGEM [TRIM15] | 4.71 ± 0.17 | 3.84 ± 0.45 |  | 
43 | RKNPYPTKGEKIMLAIITKMTLTQ [IRX6] | 2.61 ± 1 | 2.74 ± 0.62 |  | 
44 | GLLSKTAGFSPDCIMDDAINILQN [INTS4] | 2.91 ± 0.33 | 2.89 ± 0.17 |  | 
